Test results: US20260234283A1 (published 2026)
Where a chain is given by its changes, count along the chain named.

T1: recombinant cyno SIRPα-His (cynomolgus monkey, UniProt A0A2K5VYQ9 31-372)
T1 chain: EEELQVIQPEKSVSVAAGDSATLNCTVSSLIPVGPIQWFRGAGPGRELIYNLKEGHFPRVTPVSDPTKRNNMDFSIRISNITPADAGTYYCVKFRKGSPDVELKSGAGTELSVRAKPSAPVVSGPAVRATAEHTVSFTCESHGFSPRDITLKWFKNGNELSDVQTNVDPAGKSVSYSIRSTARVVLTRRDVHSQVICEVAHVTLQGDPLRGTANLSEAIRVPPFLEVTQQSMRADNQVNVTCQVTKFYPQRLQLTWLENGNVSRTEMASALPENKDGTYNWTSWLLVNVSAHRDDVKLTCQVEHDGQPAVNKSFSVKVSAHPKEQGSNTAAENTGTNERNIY

B1: 56.16A1.H11 (antibody, V domains shown)
VH: EVQLVESGGGLVQPGRSMKLSCAASGFIFTNYDMAWVRQAPTKGLEWVASISYGGSRIYYRDSVKGRFTISRDDAKSTLYLQMDSLRSEDTATYYCTTDYGYNPSYYWYFDFWGPGTMVTVSS
VL: DIQMTQTPSSMPASLGERVTISCRASQGISNYLNWYQQKPDGTIKPLIYYTSNLQSGVPSRFSGSGSGTDYSLTISSLEPEDFAMYYCQQYDSSPYTFGAGTKLELKR
B2: 53.21A9.B11 (antibody, V domains shown)
VH: QVQLQESGPGLVKPSETLSLTCTVSGGSVSSGRYYWSWIRQPPGKGLEWIGYIYYSGSTNYNPSLKSRVTISVDTSKNQFSLKLTSVTAADTAVYYCARAYDWNYFFDYWGQGTLVTVSS
VL: DIVMTQSPLSLPVTPGEPASISCRSSQSLLYSNGYNYLEWYLQKPGQSPQLLIYLGSNRASGVPDRFSGSGSGTDFTLQISRVEAEDVGVYYCMQGLQTPITFGQGTRLEIK
B3: 54.69B10.E7 (antibody, V domains shown)
VH: EVQLVESGGGLVQPGGSLRLSCAASGFTFSSYDMHWVRQTTGKGLEWVSVIGIAGDTYYAGSVKGRFTISRENAKSSLYLQMNSLRAGDTAVYYCARGGNWDDAFDIWGQGTMVTVSS
VL: DIQMTQSPSSLSASVGDRVTITCRASQDINNYLAWFQQKPGKAPKSLIYTTSSLQSGVPSKFSGSGSGTDFTLTISSLQPEDFATYYCQQYVSYPYTFGQGTKLEIK
B4: 54.8A5.A5 (antibody, V domains shown)
VH: B3 VH with G10D, V12I, T28S, V50A, I53T, A60P, S76N, M113V
VL: B3 VL with K42R, Y49F, T51A, S53R, T72S, V92T, S93F
B5: 54.76D9.B6 (antibody, V domains shown)
VH: B3 VH with T40A, A54S, A60P, S76N, Y79H, F105L
VL: B3 VL
B6: 49.64D3.A6 (antibody, V domains shown)
VH: EVMLVESGGGLVKPGGSLKLTCAASGFIFSNYAMSWVRQTPEKRLEWVATFSSGGSYTYYQDSVKGRFTVSRDNAKNTLYLQMSSLRSEDTAMYYCARSGWDGWFAYWGQGTLVTVSA
VL: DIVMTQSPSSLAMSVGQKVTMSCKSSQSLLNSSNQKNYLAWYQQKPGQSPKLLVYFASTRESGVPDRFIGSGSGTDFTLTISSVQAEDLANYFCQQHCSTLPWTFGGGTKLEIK
B7: 49.91C2.A9 (antibody, V domains shown)
VH: EVKLLESGGGLVQPGGSLKLSCAASGFDFSRYWMSWVRQAPGKGLEWIGEINPDSSTINYTPSLKDKFIISRDNAKNTLYLQMSKVRSEDTALYYCATSFYGSSYWYFDVWGAGTTVTVSS
VL: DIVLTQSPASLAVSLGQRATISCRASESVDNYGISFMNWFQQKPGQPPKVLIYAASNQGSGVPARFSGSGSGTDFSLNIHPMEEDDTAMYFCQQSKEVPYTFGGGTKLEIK
B8: 49.56C11.C1 (antibody, V domains shown)
VH: B6 VH with I28T, Y32H, S52G, Q61L, A97S
VL: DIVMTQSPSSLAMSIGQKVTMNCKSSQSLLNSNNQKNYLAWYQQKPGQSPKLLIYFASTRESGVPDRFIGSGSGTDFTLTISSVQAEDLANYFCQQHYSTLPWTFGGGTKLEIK
B9: 54.58C2.B9.A2 (antibody, V domains shown)
VH: B3 VH with T40A, A54S, A60P, S76N
VL: B3 VL

What was measured:
Experiment in all cases: Biacore
[1] = molecular target: recombinant human SIRPα-His V2 (human, UniProt P78324 31-370)
[2] = molecular target: T1, recombinant cyno SIRPα-His
[3] = molecular target: recombinant human SIRPα-His V8 (human, UniProt P78324 31-370)
Chain of recombinant human SIRPα-His V8 (P78324 other isoform, or with tags, fused parts or gaps): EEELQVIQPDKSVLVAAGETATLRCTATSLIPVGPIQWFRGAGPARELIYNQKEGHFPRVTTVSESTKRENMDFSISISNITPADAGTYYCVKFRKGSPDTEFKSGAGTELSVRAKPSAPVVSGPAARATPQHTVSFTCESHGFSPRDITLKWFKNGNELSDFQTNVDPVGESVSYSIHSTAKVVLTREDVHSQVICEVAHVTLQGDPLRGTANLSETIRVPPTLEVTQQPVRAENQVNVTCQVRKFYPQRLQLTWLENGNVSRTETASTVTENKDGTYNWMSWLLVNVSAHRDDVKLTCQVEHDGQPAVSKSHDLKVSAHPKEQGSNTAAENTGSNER

Chain of recombinant human SIRPα-His V2 (P78324 other isoform, or with tags, fused parts or gaps): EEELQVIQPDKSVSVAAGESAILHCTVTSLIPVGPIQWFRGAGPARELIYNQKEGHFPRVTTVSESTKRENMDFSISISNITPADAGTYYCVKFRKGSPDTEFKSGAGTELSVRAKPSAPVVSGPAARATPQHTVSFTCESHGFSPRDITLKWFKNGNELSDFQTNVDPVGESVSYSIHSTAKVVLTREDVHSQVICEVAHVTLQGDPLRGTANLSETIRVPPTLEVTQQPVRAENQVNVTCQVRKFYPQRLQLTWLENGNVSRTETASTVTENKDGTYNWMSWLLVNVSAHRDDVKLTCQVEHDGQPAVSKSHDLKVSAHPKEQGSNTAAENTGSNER

Binder | Kd [1] [nM] | Kd [2] [nM] | Kd [3] [nM]
B1 | 0.981 | 1.19 | 0.337
B2 | 67.6 | 116 | 62.3
B3 | < 0.1 | 3.03 | < 0.1
B4 | 1.13 | 72.3 | 1.05
B5 | < 0.1 | 3.17 | < 0.1
B6 | 3.17 | 22.6 | 2.66
B7 | 40.2 | – | 35
B8 | 3.41 | 22.3 | 2.68
B9 | < 0.1 | 2.65 | < 0.1
